Article PMC3267196

Legend:
[1] = target: Glu36 (UniProt position 36, GVPQYEYLVAM); experiment: IR (low-temperature light-induced difference FTIR); conditions: 170 K, 2 mM sodium phosphate (pH 7.0) for washing liposomes
[2] = target: Asp217 (UniProt position 217, GFSFLDLHGLR); experiment: IR (time-resolved FTIR, quoted from ref 74); conditions: Unphotolysed ASR; the protonation state of Asp217 is inferred from whether it accepts a proton on M formation; cited from earlier work

For “Anabaena sensory rhodopsin (ASR) (Anabaena (Nostoc) sp. PCC 7120)”, the pKa ([1]; buffers for pH 5 and 9 not stated, Dark-adapted ASR (97% all-trans retinal), unphotolysed state versus L intermediate formed by >580 nm illumination) was “between 6 and 7” and the pKa ([1]; not stated for pH 5 and 9, Dark-adapted ASR (predominantly all-trans), unphotolysed state bands in the L minus ASR difference spectrum) was “about 7”.

For “Anabaena sensory rhodopsin (ASR), as studied by Shi et al. 2006 (Anabaena (Nostoc) sp. PCC 7120)”, the pKa [2] is listed as “between 6 and 7”.
